In the supplement of paper PMC9732359:
± gives the uncertainty stated by the source.

Assay: protein stability index of a GFP-peptide fusion (yeast GPS) (PSI 1-4); higher = more stable; sorted into four equal gates, so the index is relative within each strain
Procedure, shortened: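 Plasmids isolated from each sorting gate were PCR-amplified and Illumina-sequenced, and barcodes assigned the reads to strains. The gates, four of equal size, were set by GFP/Cherry fluorescence ratio on mid-log cultures in leucine-free medium. These cultures were yeast carrying a pooled library of tiled 17-residue yeast protein peptides fused downstream of GFP on a plasmid that also expresses Cherry. The protein stability index is the sum of every gate's read frequency times its gate number.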

Sequence | protein stability index (doa10∆) | protein stability index (pdr5∆) | protein stability index (san1∆) | protein stability index (ubr1∆)
ITSFDQDVDDAHAIDQM [POP8] | 1.55 ± 0.064 | 1.23 ± 0.061 | 1.15 ± 0.093 | 1.08 ± 0.11
LLVKLSKRLPLRFPEHT [BRR2] | 2.3 ± 0.063 | 2.75 ± 0.07 | 2.25 ± 0.17 | 2.42 ± 0.062
QMQQQQQAQAQAQAQAQ [GAL11] | 2.1 ± 0.074 | 2.08 ± 0.053 | 2.19 ± 0.059 | 1.97 ± 0.057
ENIENEEYVINLLKVSV [ECM29] | 1.96 ± 0.12 | 3.23 ± 0.19 | – | 3.1 ± 0.11
ITYGIIKVPTYIRKLIS [SRB8] | 1.32 ± 0.074 | 1.44 ± 0.091 | 1.42 ± 0.2 | 1.36 ± 0.085
NDFTTKLINIKKFDISN [MED1] | 1.67 ± 0.08 | 1.47 ± 0.096 | 1.56 ± 0.28 | 2.28 ± 0.27
APTLSQTYINQELGFCE [SSN2] | 2.85 ± 0.18 | 2.81 ± 0.16 | 1.95 ± 0.22 | 2.92 ± 0.18
SPQAVSSFVRQELAKSI [PRE1] | 2.33 ± 0.11 | 2.33 ± 0.072 | 2.1 ± 0.19 | 2.31 ± 0.059
EANFDLINIDTSIANAF [RPC40] | 2.78 ± 0.049 | 3.27 ± 0.057 | 3 ± 0.05 | 3.07 ± 0.043
NNNNNNNNSNNIMSASG [YGL172W/NUP49] | 2.73 ± 0.059 | 2.48 ± 0.038 | 2.67 ± 0.077 | 3.1 ± 0.059
GHSLGEYAALASLADVM [FAS1] | 2.27 ± 0.061 | 2.29 ± 0.057 | 1.92 ± 0.078 | 2.6 ± 0.059
IPAWFLNRQNDITDGKD [RPS18A] | 2.91 ± 0.17 | 3.22 ± 0.15 | 2.76 ± 0.2 | 2.87 ± 0.09
VTKQSELNSSEDILEDM [SMC1] | 3.37 ± 0.065 | 3.25 ± 0.059 | 3.22 ± 0.041 | 3.18 ± 0.049
NIFSEAVKNKYNVGKQL [PRP28] | 1.55 ± 0.085 | 2.43 ± 0.11 | 1.82 ± 0.14 | 2.37 ± 0.076
GLGMISASHILIPASDL [PRP8] | 2.06 ± 0.05 | 2.41 ± 0.043 | 1.75 ± 0.06 | 2.19 ± 0.036
IGAVYSGMGPDYRVLVD [PRE8] | 3.67 ± 0.28 | – | 2.92 ± 0.3 | 3.38 ± 0.12
KDHLLGRLASTIAKQVL [RPL16B] | 1.66 ± 0.085 | 1.57 ± 0.092 | 1.25 ± 0.14 | 1.3 ± 0.066
AFTRKQANQVKRHSYAQ [RPS1A] | 1.8 ± 0.024 | 1.75 ± 0.024 | 2.03 ± 0.034 | 2.01 ± 0.027
NYNRIAKICALLFFNFS [NUT1] | 1.89 ± 0.048 | 1.8 ± 0.047 | 1.37 ± 0.082 | 1.61 ± 0.031
SSFSLTFFPRCIIAVSC [POP1] | 1.93 ± 0.029 | 1.86 ± 0.035 | 2.07 ± 0.054 | 2.03 ± 0.037
LNEYKRETLVKTWEKVT [SMC2] | 1.67 ± 0.046 | 1.84 ± 0.046 | 1.77 ± 0.083 | 2.19 ± 0.039

Sequence | protein stability index (doa10∆) | protein stability index (pdr5∆) | protein stability index (san1∆) | protein stability index (ubr1∆)
MTLKEMYQMITMGGNAE [SMC4] | 2.72 ± 0.065 | 2.41 ± 0.056 | 2.44 ± 0.058 | 2.77 ± 0.068
VLRINKMLSCAGADRLQ [RPL10] | 1.1 ± 0.092 | 1.28 ± 0.14 | 1.17 ± 0.21 | 1.11 ± 0.084
SKSENPVLSTIAFLVGL [SWI3] | 3.01 ± 0.11 | 2.54 ± 0.085 | 2.26 ± 0.1 | 2.43 ± 0.057
STRKTPNGEGSKTWETY [RPS20] | 3.19 ± 0.17 | 3.36 ± 0.16 | 3.07 ± 0.11 | 3.34 ± 0.082
QQMHEVRKELRGRAVVL [RPP0] | 3.01 ± 0.14 | 3.05 ± 0.13 | 3.27 ± 0.099 | 2.58 ± 0.073
FTKNEEKLLKELENNEF [ITC1] | 2.26 ± 0.083 | 2.28 ± 0.074 | 2.27 ± 0.083 | 2.24 ± 0.27
ISKKIIGMSLLMRTFLY [SIR3] | 1.79 ± 0.081 | 2.31 ± 0.065 | 1.99 ± 0.083 | 1.75 ± 0.077
TNFKEEITDASLNLQYV [YML103C/NUP188] | 3.08 ± 0.12 | 3.06 ± 0.084 | 3.18 ± 0.13 | 3.06 ± 0.087
IVFHNEFSEHTFVERLP [DIS3] | 2.43 ± 0.05 | 2.28 ± 0.063 | 2.64 ± 0.058 | 2.68 ± 0.053
ELDSKTRKILEILNECH [MED4] | 3.21 ± 0.074 | 3.22 ± 0.06 | 3.27 ± 0.037 | 3.21 ± 0.043
SVERGRKRAHSLVSTQS [REC8] | 3.21 ± 0.082 | 3.12 ± 0.066 | 3.26 ± 0.047 | 3.16 ± 0.042
DSDKGSKLNELKKELKL [SMC2] | 3.56 ± 0.18 | 3.02 ± 0.23 | – | 3.33 ± 0.17
FEKKLSIIKAKLPLLNE [YML103C/NUP188] | 2.34 ± 0.095 | 1.98 ± 0.13 | 1.85 ± 0.23 | 1.69 ± 0.068
KNTLLERLKQLTPNEIK [SWP82] | 2.8 ± 0.063 | 2.81 ± 0.065 | 2.71 ± 0.046 | 2.68 ± 0.054
SRKQKVIKTLTVDVSSP [RPL22B] | 2.52 ± 0.094 | 2.6 ± 0.08 | 2.36 ± 0.12 | 2.79 ± 0.058
QKLPQYIIQGSNTNDNI [RGR1] | 3.14 ± 0.1 | 3.09 ± 0.098 | 2.48 ± 0.18 | 3.25 ± 0.091
DSNESDDDVTPSTKVAS [YLR335W/NUP2] | 3.46 ± 0.16 | 3.13 ± 0.15 | 3.26 ± 0.088 | 3.54 ± 0.12
DHINGSGKRKPTKAAQR [GAL11] | 2.3 ± 0.14 | 2.81 ± 0.094 | 3.1 ± 0.16 | 3.17 ± 0.1
ERLKQLTPNEIKELEHL [SWP82] | 2.83 ± 0.064 | 2.84 ± 0.083 | 2.73 ± 0.049 | 2.7 ± 0.054
QAMGVFLTNYNVRMDTM [RPB2] | 3.54 ± 0.19 | 3.14 ± 0.16 | 3.63 ± 0.11 | 3.5 ± 0.14
KREGRNELQEERLKVPI [POP6] | – | 3.37 ± 0.2 | – | –
